Source: the RNAGym collection of RNA variant scans (doi:10.1073/pnas.2313332121)

B1: TPR t1 (parent)
chain: GACCAAUCUGCCCUCAGAGCUCGAGAACAUCUUCGGAUGCAGAGGAGGCAGGCUUCGGUGGCGCGAUAGCGCCAACGUCCUCAACCUCCAAUGCAUCCCACCACAUGAUGAUGCCUGAAGAGCCUUGGUUUUUUG

Variants of: B1
Test: polymerase ribozyme fitness, log enrichment relative to wild type (log ratio); higher = more active; in vitro selection for triplet polymerase activity
Outline: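 Fitness measures genotype enrichment against wild-type enrichment on a logarithmic scale, with inverse-variance-weighted averaging of replicates. The logarithm is base 2, and genotypes were kept only with ≥10 input reads and ≥1 read per output in Illumina sequencing. The sequenced libraries came from one triplicate in vitro selection round, including frozen incubation at −7 °C, of PCR-built, transcribed mutant libraries of each subunit of a heterodimeric triplet polymerase ribozyme.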

Row | Variant | polymerase ribozyme fitness (log ratio)
1 | A6U C11U C22U A41C | -5.83
2 | A43U C123A | -1.02
3 | U59G | -0.0797
4 | A46G A121U U126A | 0.577
5 | C22G C114U | -3.43
6 | G110C C123G | -4.09
7 | C8A C13U C20A C40A C49A A111G G117A U130C | -5.75
8 | C11U C28U G45U G61U A84U C101A | -5.59
9 | U7G A41C C114G | -0.902
10 | U9A C22A C89A G113U A118U G135U | -5.73
11 | A27U U59A | -3.1
12 | G36C G69U G120C | 0.673
13 | U55C U92G | -2.25
14 | C8G U14G G35C C64U C94U C124G | -3.33
15 | U9G A121U C123U | 2.06
16 | G44C G47A C73G | -2.76
17 | C8A C56U G69C U112A G120A | -7.42
18 | G60A C89A C115U | -2.92
19 | G10U A27U U109A | -4.99
20 | C28U G52C U106A U112A | -1.6
21 | A50U U81C | -1.83
22 | A37C C123A | -0.297
23 | C40A C80G U109A U133A | -7.59
24 | G57C G60U C88A U106A | -0.528

Row | Variant | polymerase ribozyme fitness (log ratio)
25 | G10U C13U C73U C102G A119U C124A | -5.74
26 | C62A U112A | -0.111
27 | U9A A26U C101G | -4.48
28 | A6U G36C G44A G77U C123G | -0.241
29 | A29G U131C | -1.02
30 | G17U G60U U81A | -3.3
31 | C20U C64U | -1.68
32 | G17C U87A | -3.72
33 | C13G C62G | -3.43
34 | C8U G93A C94U A118U | -0.514
35 | A2U A37U G42C G93C G120A C123G U130A | -6.65
36 | C8A C123G | 2.06
37 | G45U C70A G120U G122C | -2.72
38 | G52U A103U | -6.74
39 | C73G G117A | -0.876
40 | C13U C123G | 2.04
41 | G107C G120U | -3.85
42 | G60A C72G U92C G93A | -4.92
43 | U38C C40U C56G U78A G113A | -3.17
44 | A2U C12G A95U | -2.91
45 | G113U U131C | -3.4
46 | C8G C13G C15G C34A A46C C88U C123U | -5.49
47 | C11G C76G | -0.0651
48 | A43G U133G | -1.7

Row | Variant | polymerase ribozyme fitness (log ratio)
49 | C72U A83G C85U | -1.39
50 | G52U G63A G93A | -1.45
51 | G23C | -6.4
52 | U87G | 0.133
53 | C56G C70G | -3.88
54 | G10A A74G A119U | -0.71
55 | C89G G93C | -3.36
56 | C28U C56G | -2.75
57 | G36A C86A C115A G120U | -2.65
58 | G110A C124A | -0.401
59 | C8A C98U | -1.12
60 | G35U A119U A121C C124A | -4.47
61 | C13U U92G | -2.48
62 | A24G A37U U96C G110U | -3.88
63 | G42U A46U C62U | -2.07
64 | G36A G117U | -4.6
65 | A5C C15A | -1.17
66 | A6G U9A C34U | -3.96
67 | U21G C73A C94A | -2.37
68 | G65A G77A | -5.24
69 | G61U A66C U92A | -4.97
70 | U38G G127U G135U | -2.73
71 | C56G C85U A121U | 0.921
72 | A24G C73U U87C | -1.49

Row | Variant | polymerase ribozyme fitness (log ratio)
73 | G60C C94G U116C C123U | -3.28
74 | A68G G71A | -4.15
75 | C53A C89U C115A | -0.188
76 | C11G G17A C72A C124U | -3.65
77 | C70U U78C A105U G120C U130A | -3.59
78 | A37U C101A C115U G127C | -4.26
79 | C12A U112A | 1.18
80 | C8A C28G C53A U106G | -3.51
81 | C13A G110A | -1.4
82 | G45A U131G | -0.996
83 | C56A G77C | -0.0761
84 | G47A G48A C53G G69U U132A | -0.097
85 | A6U C11U G47A A118U | -1.52
86 | A18U C88U A111U G127A | -5.73
87 | C53U C62A G93C C104U | -1.76
88 | C34U U112G | -3.89
89 | C56U C94U G120C A121U G127U | 0.202
90 | U21G G47C C85G G93C A100U C101U | -5.69
91 | G60A C85U | -0.816
92 | U7A U21C C70U G71C A90G | -2.31
93 | G63C C79U U129C | -0.807
94 | C8G C11U U21C U132A | -0.171
95 | C31U C123G | -2.99
96 | C62A A121C | 0.464

Row | Variant | polymerase ribozyme fitness (log ratio)
97 | G10C C49A G71U | -1.17
98 | A5G C13U A43U G71A C124U | -1.48
99 | G60C G93C G120A U126C | -0.901
100 | C13U C94U A95C | -1.52
101 | A6U C22G A41C G71U | -3.47
102 | G69A C115A | -1.77
103 | A6C U9C C13U G17A G58A A121G | 0.229
104 | G25A C123A | -6.12
105 | G47U G52A C72U | -2.43
106 | A2G C3A G39U U59A A105C U106A C123G | -2.32
107 | G10A C56U | 0.385
108 | A50G C62A U67A A84G C97U G110C A118G | -8.94
109 | U7C C8G G45A C53U G63A U87A | -1.06
110 | G10U G71A G120U | 1.24
111 | G51A C53U C62G G69U C82U G120U | -6.98
112 | C8G U14A | 0.372
113 | A18C U78C | -1.87
114 | A5U C8G G19A A43U U54A C70G | -4.96
115 | G10U G58U U78C G122A C124U | 0.946
116 | U7C G17A A41G G52U | -3.17
117 | G120U U130G | -0.763
118 | A6U C97U | -0.46
119 | G19U C70U C94A C114U | -2.13
120 | C72U C85A A105U | -3.17

Row | Variant | polymerase ribozyme fitness (log ratio)
121 | G61A U78C C104A | -1.61
122 | U21G C88A | -1.66
123 | C88G G113A | -1.99
124 | C15U G120C | -0.175
125 | C11G U78C C114A G120C | -0.166
126 | C22G G57A C124U | -2.07
127 | C62U C86G G117A A119U | -0.588
128 | U54A G110A C115G | -4.1
129 | G17A U55A C72A A84G | -5.99
130 | G63C C80U A118C G120A | -3.34
131 | C11U U78A U87A C99U C115A | -4.73
132 | U33A | -4.27
133 | C34G G36A | -6.25
134 | C20A A46C A74G G93C A118G | -5.42
135 | A46G G63C | -1.22
136 | U21G G36A U54A G63U C82A C123A | -3.52
137 | U55A U59C G135U | -1.36
138 | A27U C40G C82G | -5.92
139 | G63C A105G G120C | -2.96
140 | C13U G128A | -1.67
141 | U14A U32C C82A | -3.24
142 | G61A G77A | -1.19
143 | G61U G120C | 1.18
144 | C73U C104A | -1.22

Row | Variant | polymerase ribozyme fitness (log ratio)
145 | C34A A83C | -3.65
146 | C88G U125G | -1.44
147 | G39C A90G | 0.876
148 | U21A U59A U81G C82G C115U | -5.96
149 | A74U G128C | -2.66
150 | A2U C11G G48C G120U G128C | -0.718
151 | U38G C49U G61U | -1.52
152 | C12U A121G | 1.82
153 | C12G C28U G71U C124U | -0.951
154 | C62A G117C A118C U131C | -5.12
155 | C15U G60U C123U | -0.514
156 | A46C C79A C85G | -5.69
157 | C4U C8G C28A G35U G48C C49G C64U C88U A103G A111U | -6.13
158 | A24G C62A A74C G120C | -4.13
159 | C11G C40U | -0.213
160 | G60U U106A | -0.529
161 | C49G G60U U96G | -0.746
162 | A46G C86G C101A C114U | -4.69
163 | C94U C115U A121G | -2.09
164 | C80A G120U | -2.35
165 | U54A G71U U87G C123A | -0.353
166 | C20A C53A C79U G110U | -4.5
167 | G65A C72U | -6.47
